{
  "source": "patent US9074002B2",
  "about": "“PTP1B inhibitors” (Cold Spring Harbor Laboratory, priority 2009, dated 2015)",
  "molecules": {"B1": {"name": "scFv45: conformation-sensor scFv binding PTP1B-OX, SEQ ID NO: 26 and 78; expressed as intrabody (protein)", "scFv": "MKKTAIAIAVALAGFATVAQAALTQPSSVSANPGGTVKITCSGSSSAYGYGWYQQKSPGSAPVTVIYNNNKRPSNIPSRFSGSKSGSTGTLTITGVQAEDEAVYFCGSEDSSTDAIFGAGTTLTVLGQSSRSSTVTLDESGGGLQAPGGALSLVCKASGFTFSSYDMGWIRQAPGKGLEYVAGITDNGRYASYGSAVDGRATISRDNGQSSVRLQLNNLRAEDTGTYYCARDDGSGWTGNSIDAWGHGTEVIVSSTSGQAGQHHHHHHGAYPYDVPDYAS"}},
  "key": {"[1]": {"test_system": "phosphorylation of AKT activation loop at Threonine 308 (T308)", "assay": "AKT phosphorylation (T308) after insulin stimulation in cells overexpressing scFv45", "type": "cell-based", "details": "cells overexpressing scFv45, insulin stimulated for different time periods; FIG. 13", "text": "Applicant assessed the role of PTP1B-OX specific intrabody on the downstream readout of insulin signaling by following the phosphorylation (activation) status of AKT."}, "[2]": {"biological_target": "T1, endogenous PTP1B under reducing conditions (Homo sapiens, UniProt P18031)", "T1 construct": "endogenous in cells; host or cells: 293T cells (transfected only with the scFv intrabody)", "T1 sequence (P18031 1-435)": "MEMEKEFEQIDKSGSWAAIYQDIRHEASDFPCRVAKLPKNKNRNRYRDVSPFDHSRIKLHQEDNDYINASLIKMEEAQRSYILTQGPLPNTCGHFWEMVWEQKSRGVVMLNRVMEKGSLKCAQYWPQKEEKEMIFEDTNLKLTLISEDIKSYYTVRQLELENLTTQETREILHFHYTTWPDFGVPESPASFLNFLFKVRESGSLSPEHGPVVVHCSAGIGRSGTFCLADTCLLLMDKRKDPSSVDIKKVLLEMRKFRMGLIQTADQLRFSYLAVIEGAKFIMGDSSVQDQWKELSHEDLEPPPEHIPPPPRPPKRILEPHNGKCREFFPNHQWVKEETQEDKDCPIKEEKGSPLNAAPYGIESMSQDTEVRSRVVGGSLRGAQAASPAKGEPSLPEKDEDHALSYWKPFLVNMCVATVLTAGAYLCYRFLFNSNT", "assay": "Intrabody interaction in 293T cells under reducing condition (NAC, TCEP) (Ni-NTA pull down / immunoprecipitation)", "type": "cell-based", "details": "20 mM NAC, lysis buffer with 2 mM TCEP, FIGS. 11, 12", "method": "One of the positive candidate scFvs (scFv45) was cloned in pcDNA3.2/V5-GW/D-TOPO expression vector and transiently expressed in mammalian cells as stable intracellular antibody (aka intrabody) (FIG. 10). To detect PTP1B-OX and scFv45 interaction in mammalian cells, scFv45 was overexpressed in 293T cells as described herein (See Example 4) and 48 hours post transfection the cells were serum-starved for 16 hours in growth medium (DMEM, low glucose) without serum (FBS), then incubated with 1 mM H2O2 (in growth medium without serum) for 5 minutes at 37° C. or treated with 20 mM NAC (in growth medium without serum) for 1 hour at 37° C. Cells treated with H2O2 were washed twice with cold (4° C.) PBS and lysed in lysis buffer (25 mM HEPES, pH 7.4, 150 mM NaCl, 0.25% Deoxychloate, 1% TritonX-100, 25 mM NaF, 10 mM MgCl2, 1 mM EDTA, 10% Glycerol, 0.5 mM PMSF, 10 mM Benzamidine, protease inhibitor cocktail). Cells treated with NAC were lysed with lysis buffer containing 2 mM TCEP to ensure a post-lysis reducing environment. Interaction between PTP1B and intrabody45 were tested by pulling down the protein complex from 1 mg of total cell lysate with Ni-NTA agarose or by immunoprecipitating PTP with anti-PTP1B (FG6). For the pull down experiment, Ni-NTA agarose beads were incubated with the lysates (both oxidized and reduced) at 4° C. Protein complex bound to the Ni-NTA agarose beads was pulled down and washed three times; first with lysis buffer containing 20 mM imidazole followed by two more washes with wash buffer (PBS, pH 7.4, 20 mM imidazole, 0.05% BSA, 0.05% Tween-20 and protease inhibitors). Applicant used 20 mM imidazole in the wash buffer to reduce the non-specific binding of proteins with the Ni-NTA agarose beads. The complex was eluted with wash buffer containing 500 mM imidazole with gentle shaking at 4° C. and the eluate was mixed with SDS sample buffer with DTT. For the immunoprecipitation experiments, 1 mg of total cell lystates (both oxidized and reduced) was incubated with anti-PTP1B antibody (FG6) at 4° C. The interacting protein complex was immunoprecipitated after incubating the lysate-antibody mixture with protein A/G Sepharose at 4° C. After immunoprecipitation, Sepharose beads were washed three times; first with lysis buffer followed by two more washes with wash buffer (PBS, pH 7.4, 0.05% BSA, 0.05% Tween-20 and protease inhibitors). The Sepharose beads were then heated at 90° C. in 2×SDS sample buffer with DTT. Proteins from the pulled down or immunoprecipitated complex were separated by SDS-PAGE. PTP was detected with anti-PTP1B antibody (FG6) and the intrabodies were detected with anti-HA (3F10)-HRP antibody [anti-HA (3F10)-HRP, Roche] by immunoblotting.\nIn the initial in vitro phosphatase screening assay using reversibly oxidized (with H2O2) recombinant PTP1B, Applicant found four different PTP1B-OX specific scFvs (scFv45, scFv57, scFv64 and scFv106) from the initial pool of 12 different scFvs. […] Applicant has also shown that scFv45, expressed as an intrabody in mammalian cells, can bind to endogenous PTP1B-OX but not endogenous PTP under reducing conditions. Further assessment was carried out to identify additional PTP1B-OX-specific intrabodies. Additional scFvs have been subcloned in pcDNA3.2/V5-GW/D-TOPO mammalian expression vector (FIG. 10) from their respective phagemid constructs. […]"}},
  "note": "Entries after “also recorded” stand apart in the source; their conditions may differ.",
  "data": [
    {"molecule": "B1", "values": [
      {"measurement": "AKT phosphorylation at residue Threonine 308 (T308)", "setting": "[1]", "result": "enhanced and sustained AKT phosphorylation"},
      {"measurement": "binding of intrabody to endogenous PTP1B under reducing conditions", "setting": "[2]", "result": "not in the cells that were under reducing condition; also recorded: not in the presence of NAC and TCEP"}
    ]}
  ]
}
